The text below walks through data of patent publication US6342588 (CAMBRIDGE ANTIBODY TECHNOLOGY, dated 2002).

This assay deals with recombinant TGFβ1 (R and D Systems) (UniProt P01137 279-390). The experiment in a line: method not stated.
recombinant TGFβ1 (R and D Systems), sequence (P01137 279-390 limits assumed): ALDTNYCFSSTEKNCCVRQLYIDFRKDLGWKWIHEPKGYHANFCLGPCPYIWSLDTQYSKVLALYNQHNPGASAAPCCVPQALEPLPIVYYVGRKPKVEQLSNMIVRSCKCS

B1: 31G9 scFv (scFv)
chain: QVQLVQSGGGVVQPGRSLRLSCAASGFTFSSYGMHWVRQAPGKGLEWVAVISYDGSIKYYADSVKGRFTISRDNSKNTLYLQMNSLRAEDTAVYYCARTGEYSGYDTSGVELWGQGTTVTVSSGGGGSGGGGSGGGGSDIVMTQSPSTLSASVGDRVTITCRASQGISSWLAWYQQKPGRAPKVLIYKASTLESGVPSRFSGSGSGTDFTLTISSLQPEDFATYYCQQSYSTPWTFGQGTKLEIKR
A word on the Kd: it is a measure of binding affinity in units of concentration. For the molecule B1, the dissociation constant Kd came out at 1.2 nM.
